Experimental findings from patent US20130165379A1 (AMYLIN PHARMACEUTICALS, published 2013) are described below.

In this assay the target is T1, Exendin-4 (Heloderma suspectum (Gila monster); …).
T1 construct: also called synthetic exendin-4
Nature of the assay: displacement of radiolabeled GLP-1 from RINm5f plasma membranes.

B1: GLP-1 receptor (plasma membrane preparation of rat insulinoma cell line RINm5f) (receptor)
chain: GPRPQGATVSLSETVQKWREYRHQCQRFLTEAPLLATGLFCNRTFDDYACWPDGPPGSFVNVSCPWYLPWASSVLQGHVYRFCTAEGIWLHKDNSSLPWRDLSECEESKQGERNSPEEQLLSLYIIYTVGYALSFSALVIASAILVSFRHLHCTRNYIHLNLFASFILRALSVFIKDAALKWMYSTAAQQHQWDGLLSYQDSLGCRLVFLLMQYCVAANYYWLLVEGVYLYTLLAFSVFSEQRIFKLYLSIGWGVPLLFVIPWGIVKYLYEDEGCWTRNSNMNYWLIIRLPILFAIGVNFLVFIRVICIVIAKLKANLMCKTDIKCRLAKSTLTLIPLLGTHEVIFAFVMDEHARGTLRFVKLFTELSFTSFQGFMVAVLYCFVNNEVQMEFRKSWERWRLERLNIQRDSSMKPLKCPTSSVSSGATVGSSVYAATCQNSCS
notes: whole, on cells; The receptor stood in a plasma membrane preparation of the cells, not on intact cells; also called GLP-1 receptors; RINm5f membranes
Turning to B1, the binding result is “binds”.
